In this test the target is human LIFR expressed on the surface of 293T cells (human) (UniProt P42702). The test can be described thus: flow cytometry on HEK293T-huLIFR cells, median fluorescence, span of the fitted curve.
Chain of human LIFR expressed on the surface of 293T cells (human) (P42702 45-1097): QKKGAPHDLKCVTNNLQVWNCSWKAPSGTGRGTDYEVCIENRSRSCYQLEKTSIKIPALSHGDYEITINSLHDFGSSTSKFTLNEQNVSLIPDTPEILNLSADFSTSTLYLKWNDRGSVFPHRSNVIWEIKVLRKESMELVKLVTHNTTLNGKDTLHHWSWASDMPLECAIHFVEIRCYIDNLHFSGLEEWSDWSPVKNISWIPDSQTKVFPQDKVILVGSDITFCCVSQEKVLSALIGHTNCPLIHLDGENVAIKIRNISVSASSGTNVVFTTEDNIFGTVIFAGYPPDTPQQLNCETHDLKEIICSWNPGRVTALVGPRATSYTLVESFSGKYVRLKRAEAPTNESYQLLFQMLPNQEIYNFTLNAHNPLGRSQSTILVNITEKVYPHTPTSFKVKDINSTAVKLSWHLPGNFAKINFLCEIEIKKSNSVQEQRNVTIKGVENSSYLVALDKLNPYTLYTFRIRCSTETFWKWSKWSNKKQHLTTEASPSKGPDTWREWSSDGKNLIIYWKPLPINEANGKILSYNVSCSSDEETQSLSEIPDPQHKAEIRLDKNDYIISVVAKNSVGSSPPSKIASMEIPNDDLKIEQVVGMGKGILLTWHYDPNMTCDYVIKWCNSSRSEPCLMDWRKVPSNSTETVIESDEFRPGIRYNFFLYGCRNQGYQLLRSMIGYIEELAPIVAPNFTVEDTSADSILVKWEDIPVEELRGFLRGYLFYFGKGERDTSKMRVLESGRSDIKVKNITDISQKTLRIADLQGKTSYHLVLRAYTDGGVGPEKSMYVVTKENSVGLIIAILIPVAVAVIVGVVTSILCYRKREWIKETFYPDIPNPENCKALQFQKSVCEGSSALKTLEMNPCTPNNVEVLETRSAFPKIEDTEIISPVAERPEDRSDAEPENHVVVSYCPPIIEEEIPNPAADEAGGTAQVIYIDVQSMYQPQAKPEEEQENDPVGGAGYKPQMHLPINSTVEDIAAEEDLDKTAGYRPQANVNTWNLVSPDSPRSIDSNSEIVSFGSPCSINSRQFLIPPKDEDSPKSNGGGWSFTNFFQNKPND

B1: PR301127 (antibody, human IgG1, kappa, V domains shown)
VH: EVQLLQSGGGLVQPGGSLRLSCAASGFTFSNYAMTWVRQAPGKGLEWVSTISGSGAFTYYADAVKGRFTISRVNSKNSLDLQMNSLRAEDTAVYYCAKGGILTGFDNWGQGTLVTVSS
VL: DIQMTQSPSTLSASVGDRVTITCRASQSISSWLAWYQQKPGKAPKLLIYKASSLESGVPSRFSGSGSGTEFSFTISSLQPDDFATYYCQQYKSFSPGGLTFGGGTKVEIKR
B1 came in with a Span of 237.

Values taken from patent publication US20250136702A1, “HUMAN LIFR ANTIGEN BINDING PROTEIN, PREPARATION METHOD THEREFOR, AND APPLICATION THEREOF” (NONA BIOSCIENCES (SUZHOU) CO., LTD., priority 2020, published 2025).
